Source: the Immune Epitope Database (IEDB)
pIC50, pKd: −log10 of the molar value.

Experiments:
[1] = molecular target: HLA-B*07:02; experiment: IEDB peptide-MHC binding, purified MHC/competitive/fluorescence; ≥ and ≤ were set here for values at or beyond the usual limits of such assays
[2] = molecular target: HLA-B*07:02; experiment: IEDB peptide-MHC binding, purified MHC/competitive/fluorescence; filed as Kd, often an IC50 or EC50 that approximates it; ≥ and ≤ were set here for values at or beyond the usual limits of such assays
[3] = molecular target: HLA-B*35:01; experiment: as above
[4] = molecular target: HLA-B*15:01; experiment: as above
[5] = molecular target: HLA-B*51:01; experiment: as above
[6] = molecular target: HLA-B*15:01; experiment: IEDB peptide-MHC binding, purified MHC/competitive/fluorescence; ≥ and ≤ were set here for values at or beyond the usual limits of such assays
[7] = molecular target: HLA-B*08:01; experiment: as above
[8] = molecular target: HLA-A*02:01; experiment: as above
[9] = molecular target: HLA-B*48:01; experiment: IEDB peptide-MHC binding, purified MHC/direct/fluorescence; filed as Kd, often an IC50 or EC50 that approximates it; ≥ and ≤ were set here for values at or beyond the usual limits of such assays; settings: source organism: Mammarenavirus lassaense
[10] = molecular target: HLA-B*58:01; experiment: as above; settings: source organism: Mammarenavirus lassaense
[11] = molecular target: HLA-A*03:01; experiment: as above; settings: source organism: Mammarenavirus lassaense
[12] = molecular target: HLA-B*40:01; experiment: as above; settings: source organism: Mammarenavirus lassaense
[13] = molecular target: HLA-A*11:01; experiment: as above; settings: source organism: Mammarenavirus lassaense
[14] = molecular target: HLA-A*31:01; experiment: as above; settings: source organism: Mammarenavirus lassaense
[15] = molecular target: HLA-B*44:02; experiment: as above; settings: source organism: Mammarenavirus lassaense
[16] = molecular target: HLA-A*02:01; experiment: as above; settings: source organism: Mammarenavirus lassaense
[17] = molecular target: HLA-A*69:01; experiment: as above; settings: source organism: Mammarenavirus lassaense
[18] = molecular target: HLA-B*15:01; experiment: as above; settings: source organism: Mammarenavirus lassaense
[19] = molecular target: HLA-A*01:01; experiment: as above; settings: source organism: Mammarenavirus lassaense
[20] = molecular target: HLA-B*57:01; experiment: as above; settings: source organism: Mammarenavirus lassaense
[21] = molecular target: HLA-B*08:01; experiment: as above; settings: source organism: Mammarenavirus lassaense
[22] = molecular target: HLA-B*46:01; experiment: as above; settings: source organism: Mammarenavirus lassaense
[23] = molecular target: HLA-B*27:05; experiment: as above; settings: source organism: Mammarenavirus lassaense
[24] = molecular target: HLA-B*53:01; experiment: IEDB peptide-MHC binding, purified MHC/competitive/radioactivity; filed as Kd, often an IC50 or EC50 that approximates it; ≥ and ≤ were set here for values at or beyond the usual limits of such assays; settings: source organism: Lassa virus GA391
[25] = molecular target: HLA-B*54:01; experiment: as above; settings: source organism: Lassa virus GA391
[26] = molecular target: HLA-B*07:02; experiment: as above; settings: source organism: Lassa virus GA391
[27] = molecular target: HLA-A*24:02; experiment: IEDB peptide-MHC binding, purified MHC/competitive/fluorescence; ≥ and ≤ were set here for values at or beyond the usual limits of such assays
[28] = molecular target: HLA-A*02:19; experiment: IEDB peptide-MHC binding, purified MHC/direct/fluorescence; filed as Kd, often an IC50 or EC50 that approximates it; ≥ and ≤ were set here for values at or beyond the usual limits of such assays; settings: source organism: Orthohantavirus tulaense
[29] = molecular target: HLA-A*02:12; experiment: as above; settings: source organism: Orthohantavirus tulaense
[30] = molecular target: HLA-A*02:03; experiment: as above; settings: source organism: Orthohantavirus tulaense
[31] = molecular target: HLA-A*68:02; experiment: as above; settings: source organism: Orthohantavirus tulaense
[32] = molecular target: HLA-A*02:16; experiment: as above; settings: source organism: Orthohantavirus tulaense
[33] = molecular target: HLA-A*02:11; experiment: as above; settings: source organism: Orthohantavirus tulaense
[34] = molecular target: HLA-A*24:03; experiment: as above; settings: source organism: Orthohantavirus tulaense
[35] = molecular target: HLA-B*27:03; experiment: IEDB peptide-MHC binding, purified MHC/competitive/fluorescence; filed as Kd, often an IC50 or EC50 that approximates it; ≥ and ≤ were set here for values at or beyond the usual limits of such assays; settings: source organism: Orthohantavirus tulaense
[36] = molecular target: HLA-A*03:01; experiment: as above; settings: source organism: Orthohantavirus tulaense
[37] = molecular target: HLA-B*39:01; experiment: as above; settings: source organism: Orthohantavirus tulaense
[38] = molecular target: HLA-A*31:01; experiment: as above; settings: source organism: Orthohantavirus tulaense
[39] = molecular target: HLA-A*69:01; experiment: as above; settings: source organism: Orthohantavirus tulaense
[40] = molecular target: HLA-B*18:01; experiment: as above; settings: source organism: Orthohantavirus tulaense
[41] = molecular target: HLA-B*83:01; experiment: as above; settings: source organism: Orthohantavirus tulaense
[42] = molecular target: HLA-A*26:01; experiment: as above; settings: source organism: Orthohantavirus tulaense
[43] = molecular target: HLA-B*57:01; experiment: as above; settings: source organism: Orthohantavirus tulaense
[44] = molecular target: HLA-B*15:42; experiment: as above; settings: source organism: Orthohantavirus tulaense
[45] = molecular target: HLA-B*45:06; experiment: as above; settings: source organism: Orthohantavirus tulaense
[46] = molecular target: HLA-B*46:01; experiment: as above; settings: source organism: Orthohantavirus tulaense
[47] = molecular target: HLA-B*07:02; experiment: IEDB peptide-MHC binding, purified MHC/direct/fluorescence; filed as Kd, often an IC50 or EC50 that approximates it; ≥ and ≤ were set here for values at or beyond the usual limits of such assays; settings: source organism: Mycobacterium tuberculosis variant bovis
[48] = source organism: Vaccinia virus Copenhagen
[49] = source organism: Escherichia coli O157:H7 str. Sakai
[50] = source organism: Bacillus cereus G9241
[51] = source organism: Zaire ebolavirus
[52] = source organism: Mammarenavirus lassaense
[53] = source organism: Shigella flexneri 5 str. 8401
[54] = source organism: Orthohantavirus tulaense
[55] = source organism: Vaccinia virus
[56] = source organism: Mycobacterium tuberculosis H37Rv

Sequence: INKLNGAMV
- pIC50 [1, 48]: ≤ 4.13

Sequence: LPFSASIVF
- pKd ([2]; source organism: Yersinia pestis CO92): 7.05

Sequence: TPTHLSLAI
- pKd [3, 49]: 7.77
- pKd [4, 49]: ≤ 4.70
- pKd [5, 49]: 5.53

Sequence: ILRSIEGEL
- pIC50 [6, 48]: 4.40
- pIC50 [1, 48]: 4.47
- pIC50 [7, 48]: ≤ 3.28

Sequence: LFAGSIAAY
- pKd [3, 50]: 7.28
- pKd [4, 50]: 6.72

Sequence: QLREAATEA
- pIC50 [8, 51]: 4.70
- pIC50 [6, 51]: 4.21
- pIC50 [1, 51]: 4.55
- pIC50 [7, 51]: ≤ 3.72

Sequence: YVKQNTLKL
- pKd ([2]; source organism: Influenza A virus): 7.14

Sequence: VPHVIEEVM
- pKd [9]: ≤ 4.70
- pKd [10]: ≤ 4.70
- pKd [11]: ≤ 4.70
- pKd [12]: ≤ 4.70
- pKd [13]: ≤ 4.70
- pKd [14]: ≤ 4.70
- pKd [15]: ≤ 4.70
- pKd [16]: ≤ 4.70
- pKd [17]: ≤ 4.70
- pKd [18]: ≤ 4.70
- pKd [19]: ≤ 4.70
- pKd [20]: ≤ 4.70
- pKd [21]: 5.42
- pKd [22]: ≤ 4.70
- pKd [23]: ≤ 4.70
- pKd [3, 52]: 9.70
- pKd [5, 52]: ≤ 4.70
- pKd [24]: 5.96
- pKd [25]: 4.90
- pKd [26]: 6.49

Sequence: TPAQLSMLL
- pKd [5, 53]: ≤ 4.70
- pKd [2, 53]: 6.67

Sequence: WISHRPVVL
- pIC50 ([8]; source organism: Variola virus): 5.96
- pIC50 ([27]; source organism: Variola virus): 4.67
- pIC50 ([1]; source organism: Variola virus): 5.15
- pIC50 ([7]; source organism: Variola virus): 4.59

Sequence: ILMARYMSK
- pKd [28]: ≤ 4.70
- pKd [29]: ≤ 4.70
- pKd [30]: ≤ 4.70
- pKd [31]: ≤ 4.70
- pKd [32]: ≤ 4.70
- pKd [33]: ≤ 4.70
- pKd [34]: ≤ 4.70
- pKd [35]: ≤ 4.70
- pKd [36]: 7.20
- pKd [37]: ≤ 4.70
- pKd [38]: 7.82
- pKd [39]: ≤ 4.70
- pKd [4, 54]: ≤ 4.70
- pKd [40]: ≤ 4.70
- pKd [41]: ≤ 5.30
- pKd [42]: ≤ 4.70
- pKd [5, 54]: ≤ 4.70
- pKd [43]: ≤ 4.70
- pKd [44]: ≤ 5.30
- pKd [45]: ≤ 5.30
- pKd [46]: ≤ 4.70

Sequence: YLFGGFSTL
- pIC50 ([6]; source organism: Variola virus): 5.48
- pIC50 ([1]; source organism: Variola virus): 5.12
- pIC50 ([7]; source organism: Variola virus): ≤ 3.56

Sequence: APGWLIWTY
- pKd ([2]; source organism: human gammaherpesvirus 4): ≤ 4.70

Sequence: TNQLRSVGL
- pIC50 [1, 51]: 4.19
- pIC50 [7, 51]: 4.48

Sequence: GMLRFANPL
- pIC50 [8, 55]: 6.19
- pIC50 [6, 55]: 5.77
- pIC50 [27, 55]: 5.09
- pIC50 [1, 55]: 5.27
- pIC50 [7, 55]: 4.93

Sequence: LPAGSPVAV
- pKd [47]: 6.62
- pKd [3, 56]: 8.57
- pKd [5, 56]: 6.34
